Data as given in the supplement of paper PMC7125110.
± gives the standard error. Fewer inactive variants are shown than the library holds.

B1: glmS ribozyme (parent)
chain: AUAAAAGCGCCAGAACUACAGAAAUGUAGUUGACGAGGAGGAGGUUUAUCGAAUUUUCGGCGGAUGCCUCCAAA

Tests used:
Settings in all cases: with glucosamine-6-phosphate
glucosamine-6-phosphate [1] = variants of: B1; assay: self-cleavage kobs at 40 uM GlcN6P; higher = faster cleavage; RNA array
How it was run: (§1)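 Barcoded ribozyme variants, transcribed in situ by E. coli RNA polymerase on sequenced MiSeq chips, were followed via a hybridised Cy3 probe at 37 °C. Glucosamine-6-phosphate ranged from 40 μM to 10 mM in HEPES/KCl/Mg(OAc)2 buffer. kobs came from decay fits to per-tile medians, and kcat and KM from weighted Michaelis–Menten fits.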

glucosamine-6-phosphate [2] = variants of: B1; assay: self-cleavage kobs at 160 uM GlcN6P; higher = faster cleavage; RNA array
How it was run: as §1

glucosamine-6-phosphate [3] = variants of: B1; assay: self-cleavage kobs at 640 uM GlcN6P; higher = faster cleavage; RNA array
How it was run: as §1

glucosamine-6-phosphate [4] = variants of: B1; assay: self-cleavage kobs at 2500 uM GlcN6P; higher = faster cleavage; RNA array
How it was run: as §1

glucosamine-6-phosphate [5] = variants of: B1; assay: self-cleavage kobs at 10000 uM GlcN6P; higher = faster cleavage; RNA array
How it was run: as §1

Variant | self-cleavage kobs at 40 uM GlcN6P (glucosamine-6-phosphate [1]) [s⁻¹] | self-cleavage kobs at 160 uM GlcN6P (glucosamine-6-phosphate [2]) [s⁻¹] | self-cleavage kobs at 640 uM GlcN6P (glucosamine-6-phosphate [3]) [s⁻¹] | self-cleavage kobs at 2500 uM GlcN6P (glucosamine-6-phosphate [4]) [s⁻¹] | self-cleavage kobs at 10000 uM GlcN6P (glucosamine-6-phosphate [5]) [s⁻¹]
A12U C71A | 0.000512 ± 5.5e-05 | 0.0012 ± 0.00016 | 0.00333 ± 0.00046 | 0.0115 ± 0.0027 | 0.0343 ± 0.0084
A15C C50G A53G | 7e-05 ± 2.9e-05 |  |  |  | 
U30G G44U U45C | < 1e-05 |  |  |  | < 1e-05
C11U A48C | < 1e-05 | < 1e-05 | < 1e-05 | < 1e-05 | < 1e-05
G7C C10U U30A U46A | < 1e-05 |  |  |  | 
C10U C11G C16A C50G | 9.19e-05 ± 2.5e-05 |  | 0.000376 ± 9.9e-05 | 0.000168 ± 3.4e-05 | 8e-05 ± 2.2e-05
C10U A12U G51U U56A | < 1e-05 |  |  |  | < 1e-05
C8U C16G C50G | 0.000158 ± 3.8e-05 |  |  |  | 8.29e-05 ± 1.9e-05
C34A G51A G63U C71U | < 1e-05 |  |  |  | < 1e-05
G9A G13U A15G G37C A39C A53U C67G C68A | 0.000469 ± 0.00015 |  | 0.000121 ± 4.4e-05 |  | 0.000282 ± 7.8e-05
U47G G63U | < 1e-05 | < 1e-05 | < 1e-05 | < 1e-05 | < 1e-05
G7C C11U | < 1e-05 | < 1e-05 | < 1e-05 | < 1e-05 | < 1e-05
A6C U30G C50G U56C C68A | 7.1e-05 ± 2.5e-05 |  |  |  | 0.000356 ± 0.00016
A36G C50G U56G C61A | 0.000189 ± 6.2e-05 |  |  |  | 0.000459 ± 0.00011
A36G G38A C58A | < 1e-05 |  | < 1e-05 |  | < 1e-05
C34U A36U G66A | < 1e-05 |  |  |  | < 1e-05
A15U A64C | < 1e-05 | < 1e-05 |  |  | 
A12U C34G | < 1e-05 | < 1e-05 | < 1e-05 | < 1e-05 | < 1e-05
C10U U31C G32C U49A G51U G60C | < 1e-05 |  |  |  | 
A14U U31G G38C A52U A53U | < 1e-05 |  |  |  | 
U30A A48U | < 1e-05 |  |  |  | 4.05e-05 ± 1.5e-05
U31C C34U G60U | < 1e-05 |  |  |  | < 1e-05
A33U C67G C70U | < 1e-05 |  |  |  | 

Variant | self-cleavage kobs at 40 uM GlcN6P (glucosamine-6-phosphate [1]) [s⁻¹] | self-cleavage kobs at 160 uM GlcN6P (glucosamine-6-phosphate [2]) [s⁻¹] | self-cleavage kobs at 640 uM GlcN6P (glucosamine-6-phosphate [3]) [s⁻¹] | self-cleavage kobs at 2500 uM GlcN6P (glucosamine-6-phosphate [4]) [s⁻¹] | self-cleavage kobs at 10000 uM GlcN6P (glucosamine-6-phosphate [5]) [s⁻¹]
A6U G7U C58G U69G | 0.000141 ± 4.3e-05 |  |  |  | 0.000123 ± 3.5e-05
A36C G40U C67U | < 1e-05 | < 1e-05 | < 1e-05 |  | < 1e-05
A6G C8U | < 1e-05 |  |  | < 1e-05 | < 1e-05
A33G U47G | < 1e-05 | < 1e-05 | < 1e-05 |  | < 1e-05
A33G C50U | < 1e-05 |  | < 1e-05 |  | < 1e-05
C8U G35U | < 1e-05 | < 1e-05 | < 1e-05 | < 1e-05 | < 1e-05
U46A U57A | < 1e-05 | < 1e-05 |  |  | 
A39C G44C U65C | < 1e-05 |  |  |  | 
G51C C70A | < 1e-05 |  | < 1e-05 |  | 
C10U A52U U65A | < 1e-05 |  | < 1e-05 | < 1e-05 | < 1e-05
U46G G60A | < 1e-05 | < 1e-05 | < 1e-05 |  | 
A12G A14G A15C U30G | 7.29e-05 ± 2e-05 |  |  |  | 0.0042 ± 0.00087
C50A G62A A64C | < 1e-05 |  |  |  | < 1e-05
U54A C71G | 0.000131 ± 2.1e-05 | 0.000336 ± 0.00012 | 0.000507 ± 0.00011 | 0.000368 ± 0.00016 | 0.00197 ± 0.00046
C8A C16U U45C G62U C70A | < 1e-05 |  |  |  | 
U31G U56G | 0.000123 ± 2.1e-05 | 0.000145 ± 4e-05 | 0.000347 ± 8.2e-05 | 0.00132 ± 0.00034 | 0.00342 ± 0.00086
A48G C50A | < 1e-05 | < 1e-05 | < 1e-05 | < 1e-05 | 
U65A U69C | 5.26e-05 ± 1.5e-05 |  | 0.00019 ± 8.3e-05 | 0.00117 ± 0.00044 | 0.000843 ± 0.00023
C11G G44C G60A | < 1e-05 | < 1e-05 |  |  | < 1e-05
G7A G21U A33G C67U U69G | 8.76e-05 ± 2.2e-05 |  |  |  | 0.000115 ± 1.8e-05
A15C G35U | < 1e-05 | < 1e-05 | < 1e-05 | < 1e-05 | 
G43C A64G | < 1e-05 | < 1e-05 | < 1e-05 | < 1e-05 | < 1e-05
